Laboratory results reported in PMC9126950, “SARS-CoV-2 detection using a nanobody-functionalized voltammetric device” (Communications Medicine, 2022).

Tests used:
[1] = molecular target: T1, SARS-CoV-2 spike receptor binding domain (RBD), recombinant (SARS-CoV-2, UniProt P0DTC2 319-541); experiment: SPR; details: both partners purified
T1 construct: also called SARS-CoV-2 RBD; Spike RBD

[2] = molecular target: T2, SARS-CoV-2 spike receptor binding domain (RBD), recombinant (SARS-CoV-2, UniProt P0DTC2); experiment: electrochemical titration (differential pulse voltammetry); details: both partners purified
T2 construct: also called SARS-CoV-2 RBD; Spike RBD

Binder | Kd [1] | Kd [2]
VHH-72-C13 (VHH, also called VHH-72-13C; VHH-C13) VHH: QVQLQESGGGLVCAGGSLRLSCAASGRTFSEYAMGWFRQAPGKEREFVATISWSGGSTYYTDSVKGRFTISRDNAKNTVYLQMNSLKPDDTAVYYCAAAGLGTVVSEWDYDYDYWGQGTQVTVSS | 12.1 nM | 
VHH-72 (VHH) VHH: QVQLQESGGGLVQAGGSLRLSCAASGRTFSEYAMGWFRQAPGKEREFVATISWSGGSTYYTDSVKGRFTISRDNAKNTVYLQMNSLKPDDTAVYYCAAAGLGTVVSEWDYDYDYWGQGTQVTVSS |  | 78 nM
